Data as given in US12698507B2, “Methods and compositions for conferring and/or enhancing herbicide tolerance using protoporphyrinogen IX oxidase of various cyanobacteria or variant thereof” (FarmHannong Co., Ltd., priority 2019, dated 2026).
Substitutions are numbered along the chain they refer to. Numbers in names are those of the source.

B1: CyPPO19 I408W + F360V: variant of CyPPO19 PPO protein (SEQ ID NO: 1) (protein)
chain: MSEVDVAIVGGGLSGLSLAWRLQQSAPQYSVVLLEASDRLGGNITTQTAEGFVWELGPNSFAPTPALLQLIAEVGLQSELIRGDRHLPRYIYWRGQLYPLQPTRPLALATSNLLSPWGKVRAALGALGFVPPYLGSGDESVNSFFRRHLGQEVAERLVAPFVSGVYAGDPQQLSAAAAFRRIAQLEKLGGGLIAGALHLRRQQAPKPKPPTSVQMRPGELGSFKEGLAALPRAIAQQLKAPIHLQTPVQEITPDPKGGYLLRSGEQTWRARSVVLATPAYQTAELVAPFQPAIARVLATIPYPTVACVVLAYPAGLGRSVRPGFGVLIPRSQGIRTLGTIWSSCLFPQRTPAGWQVFTSVIGGATDPDLASLSEEAIVQQVQQDLNRLLDLPAAKARLLGMKVWRRAWPQYMVGYPEQWQQVTHALSQTPGLFLCSNYAEGVALGDRVEHGNRTAAAVAAYLSGGQP
modifications: Synthetic_PPO of Thermosynechococcus elongatus PKUAC-SCTE542 (comprising GenBank No. CP032152.1)
B2: CyPPO19 I408R + F360L: variant of CyPPO19 PPO protein (SEQ ID NO: 1) (protein)
chain: B1 chain with V360L, W408R
modifications: Synthetic_PPO of Thermosynechococcus elongatus PKUAC-SCTE542 (comprising GenBank No. CP032152.1)
B3: CyPPO19 R89A + V305M + F360I: variant of CyPPO19 PPO protein (SEQ ID NO: 1) (protein)
chain: B1 chain with R89A, V305M, V360I, W408I
modifications: Synthetic_PPO of Thermosynechococcus elongatus PKUAC-SCTE542 (comprising GenBank No. CP032152.1)
B4: CyPPO19 R89A + V165C + F360V: variant of CyPPO19 PPO protein (SEQ ID NO: 1) (protein)
chain: B1 chain with R89A, V165C, W408I
modifications: Synthetic_PPO of Thermosynechococcus elongatus PKUAC-SCTE542 (comprising GenBank No. CP032152.1)
B5: CyPPO19 R89A + A167C + F360L: variant of CyPPO19 PPO protein (SEQ ID NO: 1) (protein)
chain: B1 chain with R89A, A167C, V360L, W408I
modifications: Synthetic_PPO of Thermosynechococcus elongatus PKUAC-SCTE542 (comprising GenBank No. CP032152.1)
B6: CyPPO19 R89A + A167L + F360T: variant of CyPPO19 PPO protein (SEQ ID NO: 1) (protein)
chain: B1 chain with R89A, A167L, V360T, W408I
modifications: Synthetic_PPO of Thermosynechococcus elongatus PKUAC-SCTE542 (comprising GenBank No. CP032152.1)
B7: CyPPO19 R89A + A167I + F360V: variant of CyPPO19 PPO protein (SEQ ID NO: 1) (protein)
chain: B1 chain with R89A, A167I, W408I
modifications: Synthetic_PPO of Thermosynechococcus elongatus PKUAC-SCTE542 (comprising GenBank No. CP032152.1)
B8: CyPPO19 I408W + F360T: variant of CyPPO19 PPO protein (SEQ ID NO: 1) (protein)
chain: B1 chain with V360T
modifications: Synthetic_PPO of Thermosynechococcus elongatus PKUAC-SCTE542 (comprising GenBank No. CP032152.1)
B9: CyPPO19 R89A + V165S + F360M: variant of CyPPO19 PPO protein (SEQ ID NO: 1) (protein)
chain: B1 chain with R89A, V165S, V360M, W408I
modifications: Synthetic_PPO of Thermosynechococcus elongatus PKUAC-SCTE542 (comprising GenBank No. CP032152.1)
B10: CyPPO19 R89A + V165C + F360I: variant of CyPPO19 PPO protein (SEQ ID NO: 1) (protein)
chain: B1 chain with R89A, V165C, V360I, W408I
modifications: Synthetic_PPO of Thermosynechococcus elongatus PKUAC-SCTE542 (comprising GenBank No. CP032152.1)

These molecules were tested on PPO-deficient BT3 E. coli (ΔPPO) (assay: PPO-inhibiting herbicide tolerance test of PPO variants in E. coli (growth on herbicide-containing LB agar)). Conditions: CyPPO19 variants in BT3 (ΔPPO) E. coli; LB agar with 0 to 2,000 μM herbicide, 37° C., dark, 16-20 hours.
Format: cell-based
Method in brief: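 Tolerance was scored against wild-type enzyme: '−' for equal growth, one '+' per 10-fold gain, up to '+++++'. ΔPPO BT3 cells carrying variant plasmids, spotted as a 10-fold dilution series from OD600=0.5, grew 16-20 h at 37° C. in the dark on ampicillin LB agar containing 0 to 2,000 μM herbicide.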
For B1, the “tolerance level relative to wild type, Carfentrazone” value was “+ (‘+’ per each 10-fold resistance)”, the “tolerance level relative to wild type, Flumioxazin” value was “++++ (‘+’ per each 10-fold resistance)” and the “tolerance level relative to wild type, Fomesafen” value was “+++ (‘+’ per each 10-fold resistance)”. For the same molecule, the “tolerance level relative to wild type, Oxyfluorfen” value was “++ (‘+’ per each 10-fold resistance)”, the “tolerance level relative to wild type, Saflufenacil” value was “+++ (‘+’ per each 10-fold resistance)” and the “tolerance level relative to wild type, Sulfentrazone” value was “+++ (‘+’ per each 10-fold resistance)”. The “tolerance level relative to wild type, Tiafenacil” value was “++++ (‘+’ per each 10-fold resistance)”. B2 was tested, and the “tolerance level relative to wild type, Carfentrazone” value was “+ (‘+’ per each 10-fold resistance)”, the “tolerance level relative to wild type, Flumioxazin” value was “+ (‘+’ per each 10-fold resistance)” and the “tolerance level relative to wild type, Fomesafen” value was “+ (‘+’ per each 10-fold resistance)”. The “tolerance level relative to wild type, Oxyfluorfen” value was “+ (‘+’ per each 10-fold resistance)”, the “tolerance level relative to wild type, Saflufenacil” value was “+ (‘+’ per each 10-fold resistance)” and the “tolerance level relative to wild type, Sulfentrazone” value was “+ (‘+’ per each 10-fold resistance)”. The “tolerance level relative to wild type, Tiafenacil” value was “++ (‘+’ per each 10-fold resistance)”. With B3 the “tolerance level relative to wild type, Carfentrazone” value was “+ (‘+’ per each 10-fold resistance)”, the “tolerance level relative to wild type, Flumioxazin” value was “+++ (‘+’ per each 10-fold resistance)” and the “tolerance level relative to wild type, Fomesafen” value was “+ (‘+’ per each 10-fold resistance)”. For the same molecule, the “tolerance level relative to wild type, Oxyfluorfen” value was “+ (‘+’ per each 10-fold resistance)”, the “tolerance level relative to wild type, Saflufenacil” value was “+++ (‘+’ per each 10-fold resistance)” and the “tolerance level relative to wild type, Sulfentrazone” value was “++ (‘+’ per each 10-fold resistance)”. The “tolerance level relative to wild type, Tiafenacil” value was “+++ (‘+’ per each 10-fold resistance)”. For B4, the “tolerance level relative to wild type, Carfentrazone” value was “+ (‘+’ per each 10-fold resistance)”, the “tolerance level relative to wild type, Flumioxazin” value was “++++ (‘+’ per each 10-fold resistance)” and the “tolerance level relative to wild type, Fomesafen” value was “+ (‘+’ per each 10-fold resistance)”. The “tolerance level relative to wild type, Oxyfluorfen” value was “+ (‘+’ per each 10-fold resistance)”, the “tolerance level relative to wild type, Saflufenacil” value was “++++ (‘+’ per each 10-fold resistance)” and the “tolerance level relative to wild type, Sulfentrazone” value was “+++ (‘+’ per each 10-fold resistance)”. For the same molecule, the “tolerance level relative to wild type, Tiafenacil” value was “++++ (‘+’ per each 10-fold resistance)”. B5 was tested, and the “tolerance level relative to wild type, Carfentrazone” value was “++ (‘+’ per each 10-fold resistance)”, the “tolerance level relative to wild type, Flumioxazin” value was “++++ (‘+’ per each 10-fold resistance)” and the “tolerance level relative to wild type, Fomesafen” value was “++ (‘+’ per each 10-fold resistance)”. For the same molecule, the “tolerance level relative to wild type, Oxyfluorfen” value was “+++ (‘+’ per each 10-fold resistance)”, the “tolerance level relative to wild type, Saflufenacil” value was “++++ (‘+’ per each 10-fold resistance)” and the “tolerance level relative to wild type, Sulfentrazone” value was “++++ (‘+’ per each 10-fold resistance)”. For the same molecule, the “tolerance level relative to wild type, Tiafenacil” value was “++++ (‘+’ per each 10-fold resistance)”. With B6 the “tolerance level relative to wild type, Carfentrazone” value was “++ (‘+’ per each 10-fold resistance)”, the “tolerance level relative to wild type, Flumioxazin” value was “++++ (‘+’ per each 10-fold resistance)” and the “tolerance level relative to wild type, Fomesafen” value was “++ (‘+’ per each 10-fold resistance)”. The “tolerance level relative to wild type, Oxyfluorfen” value was “++ (‘+’ per each 10-fold resistance)”, the “tolerance level relative to wild type, Saflufenacil” value was “++++ (‘+’ per each 10-fold resistance)” and the “tolerance level relative to wild type, Sulfentrazone” value was “+++ (‘+’ per each 10-fold resistance)”. For the same molecule, the “tolerance level relative to wild type, Tiafenacil” value was “++++ (‘+’ per each 10-fold resistance)”. In the case of B7, the “tolerance level relative to wild type, Carfentrazone” value is reported as “+ (‘+’ per each 10-fold resistance)”, the “tolerance level relative to wild type, Flumioxazin” value is reported as “+++++ (until ‘+++++’ as maximal resistance)” and the “tolerance level relative to wild type, Fomesafen” value is reported as “+++ (‘+’ per each 10-fold resistance)”. The “tolerance level relative to wild type, Oxyfluorfen” value was “+++ (‘+’ per each 10-fold resistance)”, the “tolerance level relative to wild type, Saflufenacil” value was “+++++ (until ‘+++++’ as maximal resistance)” and the “tolerance level relative to wild type, Sulfentrazone” value was “+++++ (until ‘+++++’ as maximal resistance)”. For the same molecule, the “tolerance level relative to wild type, Tiafenacil” value was “+++++ (until ‘+++++’ as maximal resistance)”. In the case of B8, the “tolerance level relative to wild type, Carfentrazone” value is reported as “+ (‘+’ per each 10-fold resistance)”, the “tolerance level relative to wild type, Flumioxazin” value is reported as “+ (‘+’ per each 10-fold resistance)” and the “tolerance level relative to wild type, Fomesafen” value is reported as “+ (‘+’ per each 10-fold resistance)”. The “tolerance level relative to wild type, Oxyfluorfen” value was “+ (‘+’ per each 10-fold resistance)”, the “tolerance level relative to wild type, Saflufenacil” value was “++ (‘+’ per each 10-fold resistance)” and the “tolerance level relative to wild type, Sulfentrazone” value was “+ (‘+’ per each 10-fold resistance)”. For the same molecule, the “tolerance level relative to wild type, Tiafenacil” value was “++ (‘+’ per each 10-fold resistance)”. In the case of B9, the “tolerance level relative to wild type, Carfentrazone” value is reported as “+ (‘+’ per each 10-fold resistance)”, the “tolerance level relative to wild type, Flumioxazin” value is reported as “++++ (‘+’ per each 10-fold resistance)” and the “tolerance level relative to wild type, Fomesafen” value is reported as “+++ (‘+’ per each 10-fold resistance)”. For the same molecule, the “tolerance level relative to wild type, Oxyfluorfen” value was “+++ (‘+’ per each 10-fold resistance)”, the “tolerance level relative to wild type, Saflufenacil” value was “++++ (‘+’ per each 10-fold resistance)” and the “tolerance level relative to wild type, Sulfentrazone” value was “+++ (‘+’ per each 10-fold resistance)”. The “tolerance level relative to wild type, Tiafenacil” value was “++++ (‘+’ per each 10-fold resistance)”. In the case of B10, the “tolerance level relative to wild type, Carfentrazone” value is reported as “+ (‘+’ per each 10-fold resistance)”, the “tolerance level relative to wild type, Flumioxazin” value is reported as “++++ (‘+’ per each 10-fold resistance)” and the “tolerance level relative to wild type, Fomesafen” value is reported as “++ (‘+’ per each 10-fold resistance)”. The “tolerance level relative to wild type, Oxyfluorfen” value was “++ (‘+’ per each 10-fold resistance)”, the “tolerance level relative to wild type, Saflufenacil” value was “++++ (‘+’ per each 10-fold resistance)” and the “tolerance level relative to wild type, Sulfentrazone” value was “+++ (‘+’ per each 10-fold resistance)”. The “tolerance level relative to wild type, Tiafenacil” value was “++++ (‘+’ per each 10-fold resistance)”.
